One may read the EC50 (read off the curve) as the concentration needed to bring the measured effect to its halfway point. What is called pKd is −log10 of the Kd, conventionally taken in molar units.

pKd: −log10 of the molar value.

The target of assay [1] is Rat NOGO (A56) plus GST tag (rat). Description: direct ELISA on GST-NOGO-A56 from rat, Abs490. A general note: In an ELISA, binding on a coated surface is turned into a signal by an enzyme label.
Assay [2] addresses Marmoset NOGO (A56) plus GST tag (marmoset). Kind of assay: direct ELISA on GST-NOGO-A56 from marmoset, Abs490.
Assay [3] deals with Cynomolgus monkey NOGO (A56) plus GST tag (cynomolgus monkey). Description: direct ELISA on GST-NOGO-A56 from cynomolgus, Abs490.
For assay [4], the target named is Squirrel monkey NOGO (A56) plus GST tag (squirrel monkey). Description: direct ELISA on GST-NOGO-A56 from squirrel monkey, Abs490.
The target in assay [5] is GST-human NOGO-A56 (human). Kind of assay: SPR (Biacore T100), human Nogo-A amine-coupled to CM5, antibody 0.125-8 nM flowed over; mean. On the technique in general: Surface plasmon resonance follows binding to a sensor surface in real time, without labels.
Assay [6] has as its target Cynomolgus monkey NOGO (A56) plus GST tag (cynomolgus monkey). Description: SPR (Biacore T100), Nogo-A orthologue amine-coupled to CM5, antibody 0.125-8 nM flowed over; mean.
Assay [7] deals with Marmoset NOGO (A56) plus GST tag (marmoset). Described as above.
The target of assay [8] is Rat NOGO (A56) plus GST tag (rat). Described as above.
The target in assay [9] is Squirrel monkey NOGO (A56) plus GST tag (squirrel monkey). The assay is described as above.
Assay [10] has as its target Cynomolgus monkey NOGO (A56) plus GST tag (cynomolgus monkey). Description: SPR (Biacore T100), reverse format: antibody captured by Protein A, GST-NOGO-A56 flowed over; mean.
Assay [11] has as its target GST-human NOGO-A56 (human). Described as above.
Assay [12] addresses Marmoset NOGO (A56) plus GST tag (marmoset). Described as above.
Assay [13] has as its target Rat NOGO (A56) plus GST tag (rat). The assay is described as above.
Assay [14] addresses Squirrel monkey NOGO (A56) plus GST tag (squirrel monkey). The description is as above.

Chain of Marmoset NOGO (A56) plus GST tag (marmoset) (chain, as listed by the source limits assumed): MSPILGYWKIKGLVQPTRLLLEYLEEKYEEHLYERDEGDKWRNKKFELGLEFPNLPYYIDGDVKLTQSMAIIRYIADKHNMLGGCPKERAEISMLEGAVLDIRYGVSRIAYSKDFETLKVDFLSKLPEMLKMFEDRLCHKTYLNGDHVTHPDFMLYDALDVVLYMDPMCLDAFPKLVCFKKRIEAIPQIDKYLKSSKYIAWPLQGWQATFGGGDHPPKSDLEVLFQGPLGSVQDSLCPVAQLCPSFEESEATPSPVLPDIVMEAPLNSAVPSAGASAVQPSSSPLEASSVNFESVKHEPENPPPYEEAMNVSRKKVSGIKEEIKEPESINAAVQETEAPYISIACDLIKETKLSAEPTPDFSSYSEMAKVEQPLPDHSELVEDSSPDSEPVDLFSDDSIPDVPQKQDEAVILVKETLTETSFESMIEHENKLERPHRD
Chain of Cynomolgus monkey NOGO (A56) plus GST tag (cynomolgus monkey) (chain, as listed by the source limits assumed): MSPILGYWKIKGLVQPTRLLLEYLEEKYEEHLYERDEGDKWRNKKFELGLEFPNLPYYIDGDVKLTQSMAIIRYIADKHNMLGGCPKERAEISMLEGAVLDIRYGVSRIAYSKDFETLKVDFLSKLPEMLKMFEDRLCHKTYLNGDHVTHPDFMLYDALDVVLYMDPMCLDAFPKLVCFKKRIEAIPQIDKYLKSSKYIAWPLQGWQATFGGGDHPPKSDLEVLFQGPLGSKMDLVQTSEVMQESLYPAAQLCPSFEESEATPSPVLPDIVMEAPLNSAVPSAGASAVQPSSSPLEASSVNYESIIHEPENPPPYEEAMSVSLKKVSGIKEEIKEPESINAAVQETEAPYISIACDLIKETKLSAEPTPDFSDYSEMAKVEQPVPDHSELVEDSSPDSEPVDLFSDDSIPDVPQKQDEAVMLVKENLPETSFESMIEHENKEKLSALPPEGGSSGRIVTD
Chain of Rat NOGO (A56) plus GST tag (rat) (chain, as listed by the source limits assumed): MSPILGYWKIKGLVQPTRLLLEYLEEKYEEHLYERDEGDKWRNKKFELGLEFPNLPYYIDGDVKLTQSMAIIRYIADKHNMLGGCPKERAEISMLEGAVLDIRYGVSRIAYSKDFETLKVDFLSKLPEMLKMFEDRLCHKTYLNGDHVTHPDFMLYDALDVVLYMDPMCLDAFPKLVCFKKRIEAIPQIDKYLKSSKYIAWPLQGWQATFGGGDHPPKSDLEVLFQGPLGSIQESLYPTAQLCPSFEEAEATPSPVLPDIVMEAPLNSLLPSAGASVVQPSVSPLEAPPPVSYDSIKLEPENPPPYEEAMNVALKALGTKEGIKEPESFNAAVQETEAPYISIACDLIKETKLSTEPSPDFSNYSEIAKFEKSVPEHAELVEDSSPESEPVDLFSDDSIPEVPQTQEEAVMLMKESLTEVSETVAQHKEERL
Chain of Squirrel monkey NOGO (A56) plus GST tag (squirrel monkey) (chain, as listed by the source limits assumed): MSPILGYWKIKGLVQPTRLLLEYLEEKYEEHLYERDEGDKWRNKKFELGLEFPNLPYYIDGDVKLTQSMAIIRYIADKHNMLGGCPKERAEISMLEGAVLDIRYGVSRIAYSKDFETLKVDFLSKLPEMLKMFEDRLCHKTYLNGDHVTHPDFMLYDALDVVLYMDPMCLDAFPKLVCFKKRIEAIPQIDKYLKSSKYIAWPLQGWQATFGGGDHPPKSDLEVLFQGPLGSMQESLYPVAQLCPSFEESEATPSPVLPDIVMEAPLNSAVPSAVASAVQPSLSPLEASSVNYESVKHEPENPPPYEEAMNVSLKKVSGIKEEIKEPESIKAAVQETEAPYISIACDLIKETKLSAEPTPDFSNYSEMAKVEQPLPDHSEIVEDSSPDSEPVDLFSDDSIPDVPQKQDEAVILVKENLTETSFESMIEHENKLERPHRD
Chain of GST-human NOGO-A56 (human) (chain, as listed by the source limits assumed): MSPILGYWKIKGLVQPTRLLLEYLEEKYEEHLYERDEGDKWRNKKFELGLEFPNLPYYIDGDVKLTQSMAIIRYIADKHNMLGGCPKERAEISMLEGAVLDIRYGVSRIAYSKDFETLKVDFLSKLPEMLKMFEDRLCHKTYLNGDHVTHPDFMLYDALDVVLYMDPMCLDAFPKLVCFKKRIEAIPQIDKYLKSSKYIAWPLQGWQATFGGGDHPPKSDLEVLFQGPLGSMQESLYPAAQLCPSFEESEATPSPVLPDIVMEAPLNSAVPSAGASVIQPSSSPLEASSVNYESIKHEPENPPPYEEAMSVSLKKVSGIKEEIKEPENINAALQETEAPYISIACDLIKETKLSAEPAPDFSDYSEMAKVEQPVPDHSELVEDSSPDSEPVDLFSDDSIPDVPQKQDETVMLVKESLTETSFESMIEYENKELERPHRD

Take chimeric 11C7 (antibody): the EC50 (read off the curve) in assay [1] was 0.06 µg/mL; in assay [2], 0.04 µg/mL; in assay [3] it was 0.06 µg/mL; in [4] it was 0.04 µg/mL. The pKd was 9.72 in assay [5]; 9.64 in [6]; 9.62 in assay [7]; 9.96 in [8]; 9.59 in assay [9]; 9.12 in assay [10]. Also, the negative logarithm of the Kd (pKd) in assay [11] was 9.24; in assay [12] it was 8.88; in assay [13], 9.19; in assay [14], 8.57.

These data come from US20130287781A1.
